Results reported in patent publication US20130209454A1.

Legend:
Experiment in all cases: cell-based or functional assay
[1] = target: HIV-1 Env of strain 9004SS_A3_4 (HIV-1)
[2] = target: HIV-1 Env of strain ZM109F.PB4 (HIV-1)
[3] = target: Env of HIV-1 strain 263-8 (HIV-1)
[4] = target: HIV-1 Env of strain Ce1176_A3 (HIV-1)
[5] = target: Env of HIV-1 strain Ce1176_A3 (HIV-1)
[6] = target: Env of HIV-1 strain 6811.v7.c18 (HIV-1)
[7] = target: HIV-1 Env of strain 6041.v3.c23 (HIV-1)
[8] = target: HIV-1 Env of strain R1166.c01 (HIV-1)
[9] = target: HIV-1 Env of strain 0815.v3.c3 (HIV-1)
[10] = target: HIV-1 Env of strain BJOX010000.06.2 (HIV-1)
[11] = target: Env of HIV-1 strain TRO.11 (HIV-1)
[12] = target: Env of HIV-1 strain Q259.d2.17 (HIV-1)
[13] = target: HIV-1 Env of strain TRO.11 (HIV-1)
[14] = target: Env of HIV-1 strain 235-47 (HIV-1)
[15] = target: Env of HIV-1 strain 3301.v1.c24 (HIV-1)
[16] = target: Env of HIV-1 strain ZM109F.PB4 (HIV-1)
[17] = target: Env of HIV-1 strain 191821_E6_1 (HIV-1)
[18] = target: Env of HIV-1 strain Ce2060_G9 (HIV-1)
[19] = target: HIV-1 Env of strain Q23.17 (HIV-1)
[20] = target: Env of HIV-1 strain CAP45.2.00.G3 (HIV-1)
[21] = target: HIV-1 Env of strain CNE19 (HIV-1)
[22] = target: HIV-1 Env of strain QH0692.42 (HIV-1)
[23] = target: Env of HIV-1 strain HIV-0013095-2.11 (HIV-1)
[24] = target: Env of HIV-1 strain 62357_14_D3_4589 (HIV-1)
[25] = target: HIV-1 Env of strain Q259.d2.17 (HIV-1)
[26] = target: Env of HIV-1 strain 1394C9G1(Rev-) (HIV-1)
[27] = target: Env of HIV-1 strain ZM53M.PB12 (HIV-1)
[28] = target: HIV-1 Env of strain BJOX009000.02.4 (HIV-1)
[29] = target: Env of HIV-1 strain CNE21 (HIV-1)
[30] = target: HIV-1 Env of strain P1981_C5_3 (HIV-1)
[31] = target: Env of HIV-1 strain 231966.c02 (HIV-1)
[32] = target: Env of HIV-1 strain 231965.c01 (HIV-1)
[33] = target: HIV-1 Env of strain 263-8 (HIV-1)
[34] = target: HIV-1 Env of strain 235-47 (HIV-1)
[35] = target: HIV-1 Env of strain SC05_8C11_2344 (HIV-1)
[36] = target: HIV-1 Env of strain HIV-0013095-2.11 (HIV-1)
[37] = target: HIV-1 Env of strain 249M B10 (HIV-1)
[38] = target: HIV-1 Env of strain Ce2010_F5 (HIV-1)
[39] = target: HIV-1 Env of strain 6811.v7.c18 (HIV-1)
[40] = target: Env of HIV-1 strain 6480.v4.c25 (HIV-1)
[41] = target: Env of HIV-1 strain BJOX009000.02.4 (HIV-1)
[42] = target: Env of HIV-1 strain C1080.c03 (HIV-1)
[43] = target: Env of HIV-1 strain CNE20 (HIV-1)
[44] = target: Env of HIV-1 strain THRO4156.18 (HIV-1)
[45] = target: Env of HIV-1 strain 3365.v2.c2 (HIV-1)
[46] = target: Env of HIV-1 strain C4118.c09 (HIV-1)
[47] = target: HIV-1 Env of strain Ce0393_C3 (HIV-1)
[48] = target: Env of HIV-1 strain QH0692.42 (HIV-1)
[49] = target: HIV-1 Env of strain 6535.3 (HIV-1)
[50] = target: Env of HIV-1 strain X1254_c3 (HIV-1)
[51] = target: HIV-1 Env of strain Ce1172_H1 (HIV-1)

NIH45-46 (antibody), sequence (VH): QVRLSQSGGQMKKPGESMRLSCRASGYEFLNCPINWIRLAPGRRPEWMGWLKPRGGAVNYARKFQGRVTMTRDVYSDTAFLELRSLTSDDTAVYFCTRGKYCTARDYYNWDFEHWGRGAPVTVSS
NIH45-46 (antibody), sequence (V domain): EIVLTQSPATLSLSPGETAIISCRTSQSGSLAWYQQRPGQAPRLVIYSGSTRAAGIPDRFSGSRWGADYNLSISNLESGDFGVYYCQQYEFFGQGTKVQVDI

NIH45-46 (antibody)
IC50, pseudovirus neutralization [1]: 0.18 µg/mL
IC50, pseudovirus neutralization [2]: 0.095 µg/mL
IC80 [3]: 0.1 µg/mL
IC50, pseudovirus neutralization [4]: 0.93 µg/mL
IC80 [5]: 3.17 µg/mL
IC80 [6]: 0.113 µg/mL
IC50, pseudovirus neutralization [7]: 0.006 µg/mL
IC50, pseudovirus neutralization [8]: 0.31 µg/mL
IC50, pseudovirus neutralization [9]: 0.014 µg/mL
IC50, pseudovirus neutralization [10]: 0.87 µg/mL
IC80 [11]: 7.49 µg/mL
IC80 [12]: 0.154 µg/mL
IC50, pseudovirus neutralization [13]: 1.61 µg/mL
IC80 [14]: 1.49 µg/mL
IC80 [15]: 0.033 µg/mL
IC80 [16]: 0.437 µg/mL
IC80 [17]: 0.46 µg/mL
IC80 [18]: 0.29 µg/mL
IC50, pseudovirus neutralization [19]: 0.14 µg/mL
IC80 [20]: > 50 µg/mL
IC50, pseudovirus neutralization [21]: 0.07 µg/mL
IC50, pseudovirus neutralization [22]: 0.72 µg/mL
IC80 [23]: 0.03 µg/mL
IC80 [24]: 0.19 µg/mL
IC50, pseudovirus neutralization [25]: 0.043 µg/mL
IC80 [26]: 0.38 µg/mL
IC80 [27]: 0.61 µg/mL
IC50, pseudovirus neutralization [28]: 0.26 µg/mL
IC80 [29]: 38.1 µg/mL
IC50, pseudovirus neutralization [30]: 0.08 µg/mL
IC80 [31]: 9.64 µg/mL
IC80 [32]: 0.126 µg/mL
IC50, pseudovirus neutralization [33]: 0.05 µg/mL
IC50, pseudovirus neutralization [34]: 0.3 µg/mL
IC50, pseudovirus neutralization [35]: 0.14 µg/mL
IC50, pseudovirus neutralization [36]: 0.01 µg/mL
IC50, pseudovirus neutralization [37]: 0.04 µg/mL
IC50, pseudovirus neutralization [38]: 0.101 µg/mL
IC50, pseudovirus neutralization [39]: 0.035 µg/mL
IC80 [40]: 0.1 µg/mL
IC80 [41]: 1.16 µg/mL
IC80 [42]: 11.6 µg/mL
IC80 [43]: > 50 µg/mL
IC80 [44]: 8.22 µg/mL
IC80 [45]: 0.11 µg/mL
IC80 [46]: 0.91 µg/mL
IC50, pseudovirus neutralization [47]: 0.334 µg/mL
IC80 [48]: 1.71 µg/mL
IC50, pseudovirus neutralization [49]: 0.14 µg/mL
IC80 [50]: 0.107 µg/mL
IC50, pseudovirus neutralization [51]: > 50 µg/mL
